Reference: patent US20210214440A1 (Janssen / Centocor, published 2021)
Numbering of substitutions follows the chain as printed. Each block holds one binder with its values, some of them ahead of it.

Molecular target: T1, human CD8 on human pan T cells (human, UniProt P01732 22-235; P10966 22-210)
T1 construct: Native CD8 on the CD4-negative population of human pan T cells
Test: flow cytometry, 20 nM mAb on human pan T cells
Method: Secondary antibodies were A647-conjugated goat anti human IgG Fc antibody at 2 μg/mL, and A488-conjugated mouse anti-human CD4 at 1 μg/mL in staining buffer. Live cells were also gated based on OKT8 control mAb binding. Percent CD8 positive population was calculated by percentage of CD8-positive cell count/live cell count.

T1 sequence (P01732 22-235, chain 1 of 2): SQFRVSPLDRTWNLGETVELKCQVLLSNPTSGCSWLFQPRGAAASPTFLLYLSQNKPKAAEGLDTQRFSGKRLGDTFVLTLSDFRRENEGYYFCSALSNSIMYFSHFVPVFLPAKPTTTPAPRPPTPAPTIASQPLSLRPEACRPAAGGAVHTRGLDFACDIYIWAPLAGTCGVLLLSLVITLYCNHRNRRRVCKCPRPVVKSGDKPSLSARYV
T1 sequence (P10966 22-210, chain 2 of 2): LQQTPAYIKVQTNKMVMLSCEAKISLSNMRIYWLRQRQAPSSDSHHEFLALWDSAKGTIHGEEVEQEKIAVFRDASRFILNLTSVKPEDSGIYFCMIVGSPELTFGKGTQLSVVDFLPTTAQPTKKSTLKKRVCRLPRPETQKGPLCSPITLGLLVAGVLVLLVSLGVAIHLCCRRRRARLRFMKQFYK

B1: CD8B245 (antibody, human IgG1, kappa, V domains shown)
VH: EFQLQQSGGGLVQPGGSLSLSCAAPGFTFTDYYMSWVRQSPGKALEWLALSRNKGNGYTTEYSASVKGRFTISRDNSQSILYLQMNVLRAEDSATYYCARTVTGTLFYYALDYWGQGTTVTVSS
VL: DIQMTQSPASLSASVGETVTITCRASENIYSYLAWYQQKQGKSPQFLVYNAKTLAAGVPSRFSGSGSGTQFSLKINRLQPEDFGTYYCQHHYGTPLTFGDGTRLEIKR
notes: full-length human IgG1, kappa
Cell Binding to Human PanT Signal/Background (of CD4 negative population): 44

B2: CD8B337 (antibody, human IgG1, kappa, V domains shown)
VH: QVTLKESGPGKVQPSQTLSLTCSFSGFSLSTSGMGVSWIRKPSGKGLEWLAHIFWDDDRRYKSSLKSRLTISKDTSSNQVFLMITSVDTADSATYYCARRVGYGDYAYFDVWGAGTTVTVSS
VL: DIQMTQYPASLSVSVGETVTITCRASENIYSDLAWYQQKQGKSPQLLVYAATNLADGVPSRFSGSGSGTQYSLKINSLQSEDFGNYYCQHFWGTPWTFGGGTKLEIKR
notes: full-length human IgG1, kappa
Cell Binding to Human PanT Signal/Background (of CD4 negative population): 1980

B7: CD8B362 (antibody, human IgG1, kappa, V domains shown)
VH: EVKLVESGAELVKPGASVKLSCTASGFNIKDTYMHWVKQRPEQGLEWIGRIDPANGHTKFDPKFQGKATITADTSSNTAYLQLSSLTSEDTAVYYCAIRFAYWGQGTLVTVSA
VL: DIQMTQSPSSLSASLGDRVSLTCRASHEISGYLSWLQQKPDGTFKRLIYAASTLDSGVPKRFSGSRSGSDYSLSISSLESEDFADYYCLQYSSYPYTFGSGTKLEMKR
notes: full-length human IgG1, kappa
Cell Binding to Human PanT Signal/Background (of CD4 negative population): 4

B8: CD8B310 (antibody, human IgG1, kappa, V domains shown)
VH: QVQLKESGPGLVAPSQSLSITCTVSGFSLTNYAVHWVRQSPGKGLEWLGVIWTDGSTDYNAGFISRLSISKDNSKSQVFFKMNSLQADDTAIYYCARNNGYFPAFFAYWGQGTTVTVSS
VL: DVLMTQTPLSLPVSLGDQASISCRSSQTIVHSNGNTYLEWYLQKPGQSPKLLMYKVSNRFSGVPDRFGGSGSGTDFTLKISRVEAEDLGVYYCFQGSHAPFTFGSGTKLEIKR
notes: full-length human IgG1, kappa
Cell Binding to Human PanT Signal/Background (of CD4 negative population): 29

B9: CD8B250 (antibody, human IgG1, kappa, V domains shown)
VH: B8 VH with T30S, A33V, G62A, T114L, S119A
VL: DIVMTQSQKFMSTSVGDRVSVTCKASQNVDTDITWYQQKPGQSPKALIYSASYRYSGVPDRFTGSGSGTDFTLTITNVQSEDLAEYFCQQYNSYPLTFGSGTKLEMKR
notes: full-length human IgG1, kappa
Cell Binding to Human PanT Signal/Background (of CD4 negative population): 61

B10: CD8B248 (antibody, human IgG1, kappa, V domains shown)
VH: EVQLQQSGAELARPGASVKMSCKASGYTFTTYTMHWVKQRPGQGLEWIGYINPSSGYTKYNQKFTDKATLTADKSSSTAYMQLSSLTSEDSAVYYCARLWAYWGQGTLVTVSA
VL: DVVMTQTPLSLPVSLGDQASISCRSSQSLVHSSGNTYLHWYLQKPGQSPKLLIYKGSNRFSGVSDRFSGSGSGTDFTLKISRVEAEDLGVYFCSQSTHVPFTFGSGTKLEMKR
notes: full-length human IgG1, kappa
Cell Binding to Human PanT Signal/Background (of CD4 negative population): 20

B11: CD8B254 (antibody, human IgG1, kappa, V domains shown)
VH: EVQLQQSGAELVKPGASVKMSCKTSGYTFSSYWITWVKQRPGQGLEWVGDIYPGSGSTNYNEKFKSKAALTVDTSSSTAFMQLNSLTSEDSAVYYCARESITTRITPFDHWGQGTTLTVSS
VL: B10 VL with M111I
notes: full-length human IgG1, kappa
Cell Binding to Human PanT Signal/Background (of CD4 negative population): 23

B13: CD8B366 (antibody, human IgG1, kappa, V domains shown)
VH: EVQLQQSGPELVRPGASVKLSCTASGFNIKDDYIHWVKQRPEQGLEWIGRIDPANGNPRYAPKFQDKATLTADTSSNTAYLQLSSLTSEDTAVYYCARDDEGYYYFDVWGAGTSVTVSS
VL: DIKMTQSPSYLAASPGETITINCRASKSISKYLAWYQEKPGKTNKVLIYSGSTLQSGIPSRFSGSGSGTDFTLTISSLEPEDFAIYYCQQHNEYPLTFGDGTRLEIKR
notes: full-length human IgG1, kappa
Cell Binding to Human PanT Signal/Background (of CD4 negative population): 318

The remaining lines, values ahead:

Cell Binding to Human PanT Signal/Background (of CD4 negative population): 1610
B3: CD8B324 (antibody, human IgG1, kappa, V domains shown)
VH: QVQLQQPGADLVKPGASVKLSCKASGYTSTSHWIHWVKQRPGQGLEWIGNIYPGSSSTNYNEKFKRMATLTVDTSSSTVYMVLSSLTSDDSAVYYCARHSPGHRDYAMDYWGLGTSVTVSS
VL: DIVMTQSQKFMPTTVGDRVSITCKASQNVGTAVAWYQQKPGQSPKLLIASASNRYTGVPDRFTGSGSGTDFTLTISTMQSEDLADYFCQQYSTYPLTFGAGTKLEMKR
notes: full-length human IgG1, kappa

Cell Binding to Human PanT Signal/Background (of CD4 negative population): 36
B4: CD8B186 (antibody, human IgG1, kappa, V domains shown)
VH: QVQLQQSGAELAKPGASVKMSCKASGYIFTSYWMHWVKQRPGQGLEWIGNINPSSGYAVYNQKFKDKATLTADQSSSTAYIQLNSLTSEDSAVYYCARRVFYGDSWFAYWGQGTSVTVSS
VL: DVQMIQSPASLSASVGETVTITCRASGNIHNYLAWYQQKQGKSPQLLVYNAKTLADGVPSRFSGSGSGTQYSLKINSLQPEDFGSYYCQHFWSTTWTFGGGTKLEIKR
notes: full-length human IgG1, kappa

Cell Binding to Human PanT Signal/Background (of CD4 negative population): 22
B5: CD8B192 (antibody, human IgG1, kappa, V domains shown)
VH: QVQLQQSGPVLVKPGASVKMSCKASGYTFTDYYMNWVMQSHGKSLEWIGVINPYNGGTTYNQRFTGKATLTVDKSSSTAYMELNSLTSEDSAVYYCARNYGAMDSWGQGTSVTVSS
VL: B4 VL with V2I, I5T, Y49S, S63G, S93I, T95P, W96P, G100A, K103R
notes: full-length human IgG1, kappa

Cell Binding to Human PanT Signal/Background (of CD4 negative population): 16
B6: CD8B319 (antibody, human IgG1, kappa, V domains shown)
VH: QVQLKESGPELKKPGETVKISCKASGYSFTAYYMHWVKQSPEKSLEWIGEINPSAGGTTYNQKFKAKATLTVDKSSSTAFIQLKSLTSEDSAVYYCARWTNPFDYWGQGTTLTVSS
VL: DIVMTQSQKFMSTTVGDRVSITCKASQNVGTAVAWYQQKPGQSPKLLIYSASYRYTGVPDRFTGSGSGTHFTLTISNIQSEDLADYFCQQYNNYLTFGSGTKLEIKR
notes: full-length human IgG1, kappa

Cell Binding to Human PanT Signal/Background (of CD4 negative population): 8
B12: CD8B340 (antibody, human IgG1, kappa, V domains shown)
VH: QVQLQQPGAELVKPGASVRLSCKASGYTFTNYWMQWVQQRPGQGLEWIGEIDPSDTFTNYNQNFKDKATLTVDTSSSTAYLQLSSLTSEDSAVYYCARGDWDRDWYFDVWGTGTLVTVSA
VL: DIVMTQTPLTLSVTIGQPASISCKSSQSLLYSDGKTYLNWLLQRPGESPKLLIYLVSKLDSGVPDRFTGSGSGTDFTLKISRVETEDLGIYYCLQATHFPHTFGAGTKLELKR
notes: full-length human IgG1, kappa

Cell Binding to Human PanT Signal/Background (of CD4 negative population): 1
B14: CD8B311 (antibody, human IgG1, kappa, V domains shown)
VH: QVQLKESGPELVKPGASVKLSCKASGYTFTSYWMHWVKQRPGQGLEWIGMIHPNSGSTNYNEKFKSKATLTVDKSSSTAYMQLSSLTSEDSAVYYCARCGYDGAWFAYWGQGTSVTVSS
VL: DIQMTQTTSSLSASLGDRVTISCSASQGISNCLNWYQQKPDGTVKLLIHYTSSLHSGVPSRFSGGGSGTHYSLTISNLEPEDIATYYCQQYSKVPYTFGSGTKLEIKR
notes: full-length human IgG1, kappa
